Measurements: the supplement of paper PMC9170038

System: MS2 coat protein
Experiment: apparent KD of MS2 coat protein; designed switch direction (-1 OFF switch, 1 ON switch): -1; higher = weaker reporter binding
Method in brief: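 RNA switches sharing common flanks were transcribed by stalled E. coli RNA polymerase on Illumina chips. A doubling series of SNAP-549-labelled MS2 coat protein, from 0.7 or 1.5 nM to 3 µM, was applied in Tris-HCl pH 7.5 buffer with KCl, MgCl2, BSA, DTT, tRNA and Tween-20. Each step lasted 0.8–1.5 h at the bottom of the series and 10–20 min at the top. Normalised cluster fluorescence was curve-fitted, giving apparent KD as the per-design median over clusters.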

[1] = Eterna round: R95, input ligand: FMN 200 uM
[2] = Eterna round: R95, input ligand: microRNA oligo, concentration not stated
[3] = Eterna round: R95, input ligand: none
[4] = input ligand: microRNA oligo, concentration not stated

Sequence | apparent KD of MS2 coat protein (input ligand: FMN 200 uM) [µM] | apparent KD of MS2 coat protein (input ligand: none) [µM] | apparent KD of MS2 coat protein [2] [µM] | other results
GAAAACUCAGGAUAUGCGUGAGAAAACUUGAGGAUCACCCAAGUGUGGUCCCGAUCUAAAGCAGAAGGGAGCAAAA [Lebidiraus] (Eterna round: R97, puzzle: Exclusion 5) | 1.77 | 0.353 |  | 
CUGUACUGAGGAUAUACAUGAGGAUCACCCAUGUGAUUUGGUGCACGCGUACGUGUACGUAGAAGGCAGUACAG [Mat - Exclusion 3 - Eli Mod - D39] (Eterna round: R97, puzzle: Exclusion 3) | 0.317 | 0.0255 |  | 
GAAAAGGUAGGAUAUACGAAAAAAAAGGGAAGAAAAAAAACACAUGAGGAUCACCCAUGUAGAAGGACCAAAAG [salish99_ex2_r3_064] (puzzle: Exclusion 2) |  |  | 0.0216 | apparent KD of MS2 coat protein [1]: 0.0344 µM; apparent KD of MS2 coat protein [3]: 0.0206 µM
GAAAGGUAAGGAUAUGCGACUACGGUGAGAUGGUUGACCUGACAUGAGGAUCACCCAUGUAGAAGGUGCUCAAU [Eternabot (L2) Solution 33] (Eterna round: R97, puzzle: Exclusion 2) | 0.0678 | 0.0642 |  | 
UAAUUAAUAAGAUCAAUUAAUUAACAUGAGGAUCACCCAUGUGAGGAUAUCAGCUCGAUUAGAGCUGAGAAGGCACAAUAAUUA [ExNG3/17-C1] (Eterna round: R96, puzzle: Exclusion NG 3) |  |  |  | apparent KD of MS2 coat protein [4]: 0.039 µM
CUACUGAAGCUUUGCUUUAGUCGACAUGAGGAUCACCCAUGUUAGGAUAUGGUAGGCUUUGCUUACUAGAAGGAUAGAGUGAUC [salish99_ExNG3_r04_603] (Eterna round: R96, puzzle: Exclusion NG 3) | 0.121 | 0.0548 |  | apparent KD of MS2 coat protein [4]: 0.0559 µM
AAGAAGUAAGGAUAUGGCCGGGUCCCUGGGUUUGGACCCGGCUAGAAGGUACAUGAGGAUCACCCAUGUAAGAA [Excls4-IX] (puzzle: Exclusion 4) |  |  | 0.0131 | 
UUAAAUCAUGUAGGAUAUGCGUUGCGAAGCGAUGCAGAAGGACAUGAGGAUCACCCAUGUGCUAGCGUCCGCGUACGGAUGCAA [Mat - Exclusion NG 1 - Mod of JL - D60] (Eterna round: R96, puzzle: Exclusion NG 1) | 0.172 | 0.052 |  | apparent KD of MS2 coat protein [4]: 0.0653 µM
UAUGGUUAAGUCAGGAUAUGCUCGUAGUGGUCUAUGCAGAAGGGACAUGAGGAUCACCCAUGUAUGGUCGUGUU [Ex4 #68] (Eterna round: R97, puzzle: Brourd's mod of Exclusion 4) | 0.119 | 0.106 |  | 
ACAUGAGGAUCACCCAUGUAAUCAUAAUGGCUGAUGUAGAGUCAGGAUAUGUGUGGCUUACUAUCGCAGAAGGGACAAGACUGG [Deportation 33 - Jieux - Exclusion NG 3] (Eterna round: R96, puzzle: Exclusion NG 3) | 0.0263 | 0.0259 |  | apparent KD of MS2 coat protein [4]: 0.0142 µM
GGACCAAGUCUAGGAUAUUUCAAUAGUUGUGUGAGAGAAGGAGAAUAACAUGAGGAUCACCCAUGUACCUCAAGUAGGCCGAUU [Eternabot solution 16] (Eterna round: R96, puzzle: Exclusion NG 1) | 0.0592 | 0.048 |  | apparent KD of MS2 coat protein [4]: 0.0362 µM
CUUGUUUAUGUAGGAUAUGCCUGGCGUGCCUUUGCAGAAGGACAUGAGGAUCACCCAUGUAACAUGAGGCUCACCCUUGUCGCA [salish99_ExNG1_r04_115] (Eterna round: R96, puzzle: Exclusion NG 1) | 0.183 | 0.162 |  | apparent KD of MS2 coat protein [4]: 0.062 µM
GAUUAUGCGAGCUUUAGGGACAUGAGGAUCACCCAUGUUCGUCUUAUUGAUCUAGGUACACUGACAUACCUAAAUCU [JMF 66] (puzzle: Sensor v3, turn-off variant 1) |  |  | 0.0399 | apparent KD of MS2 coat protein [1]: 0.0237 µM; apparent KD of MS2 coat protein [3]: 0.0245 µM
UAAUUAAGUGUGAGGAUAUGCUGGUCCUUGGAUCAGCAGAAGGCACAUGAGGAUCACCCAUGUAAUUUAUAUAU [Mat - Exclusion 4 - JL Mod - D52] (puzzle: Brourd's mod of Exclusion 4) |  |  | 0.0855 | 
CUGCUCCGUGUAGGAUAUCGCCGCACCACCCGGCGAGAAGGACAUGAGGAUCACCCAUGUAUGUUAUUAUCACGUGUGGCGCGC [Design 40] (Eterna round: R96, puzzle: Exclusion NG 1) | 0.0176 | 0.015 |  | apparent KD of MS2 coat protein [4]: 0.0117 µM
GGUGGACAUGAGGAUCACCCAUGUGAGGAUAUCGGCUGGCUACUCGCUGACGGCUGCUCGAGAAGGCGCAUUGU [Exclusion 1 V88] (puzzle: Exclusion 1) |  |  | 0.0417 | 
CCUCGACAUGAGGAUCACCCAUGUCAGGAUAUUGUGUUUUGGGUUUUUUACCUUUAGGCAAGAAGGGAUGUGUG [LRO-Excl1-17] (puzzle: Exclusion 1) |  |  | 0.0161 | 
AAUGUUGAUGUGAGGAUAUACAUAGUUUGACCGUAGUAGAAGGCACAUGAGGAUCACCCAUGUAGAUGUUUGGU [JR_BME4_Sub004] (puzzle: Brourd's mod of Exclusion 4) |  |  | 0.0125 | 

Sequence | apparent KD of MS2 coat protein (input ligand: FMN 200 uM) [µM] | apparent KD of MS2 coat protein (input ligand: none) [µM] | apparent KD of MS2 coat protein [2] [µM] | other results
AAUUCACAUGAGGAUCACCCAUGUCAGGAUAUGGUUUCACGUGUUUCGGUGCUUGAGGCCAGAAGGGACAGCUA (puzzle: Exclusion 1) |  |  | 0.0624 | 
AGGUAACAUGAGGAUCACCCAUGUCAGGAUAUCAGUAAGAUGAGUAUAGAAGAGAGUAUGAGAAGGGACUAUAU [Excluse me! 25 - Jieux - Exclusion 1] (puzzle: Exclusion 1) |  |  | 0.0312 | 
GCUCGCGGGCAAGGAUAUCCUACGCUGUUCUGGCCCGUGUCUGUUACAUGAGGAUCACCCAUGUGGGAGAAGGUGCACCAGGGC [Design 46] (Eterna round: R96, puzzle: Exclusion NG 2) | 0.0197 | 0.0191 |  | apparent KD of MS2 coat protein [4]: 0.0119 µM
AGCUGUGGCCGAGGAUAUCUAAACCUUCAAACCGAAAUAUAAUCGGACAUGAGGAUCACCCAUGUAGAGAAGGCGGUCUCAGCA [Eli eng2 - 034] (Eterna round: R96, puzzle: Exclusion NG 2) |  |  |  | apparent KD of MS2 coat protein [4]: 0.00991 µM
UAAUUAGCAAGUAGAUCCGACAUGAGGAUCACCCAUGUUAUCUGAAAGAACGCAGAAUAAUUGUGAGCUCGUCUAAA [Sensor-V1 #2] (Eterna round: R97, puzzle: Sensor, turn-off variant 1) | 0.144 | 0.154 |  | 
GAAAAGGUAGGAUAUACGAAAAAAAAGGGUAGAUAAAAAACACAUGAGGAUCACCCAUGUAGAAGGACCAAAAG [salish99_ex2_r3_078] (puzzle: Exclusion 2) |  |  | 0.0418 | apparent KD of MS2 coat protein [1]: 0.101 µM; apparent KD of MS2 coat protein [3]: 0.0293 µM
GGCGGACAUGAGGAUCACCCAUGUAAGGAUAUUAGGCGAUCGUCGAUAGACGAUAGCCUGAGAAGGUACGCGCC [Mat - Exclusion 1 - Eli Mod - D14] (Eterna round: R97, puzzle: Exclusion 1) | 0.0186 | 0.0171 |  | 
ACAUGACUAGGAUAUACAUGAGGAUCACCCAUGUGACCACAAACAUGCUAUAUGGGCAGUAGAAGGAGUUGGAA [Eternabot (L1) Solution 86] (Eterna round: R97, puzzle: Exclusion 3) | 0.0829 | 0.0759 |  | 
AGUAGUUGUUUCCGUUCUUACAUGAGGAUCACCCAUGUUUCUUGUCGUGCUCGCGUUGCUCGUCAGACUACCAGAUG [salish99_TOv1_r3_060] (puzzle: Sensor v3, turn-off variant 1) |  |  | 0.0578 | apparent KD of MS2 coat protein [1]: 0.0511 µM; apparent KD of MS2 coat protein [3]: 0.0758 µM
CGGUGCUGAGGAUAUACAUGAGGAUCACCCAUGUGUUAUUGAUAGAAAACUGGCAGAUGUAGAAGGCGGUACUG [Mat - Exclusion 3 - Mod of JL D99] (puzzle: Exclusion 3) |  |  | 0.0254 | apparent KD of MS2 coat protein [1]: 0.0805 µM; apparent KD of MS2 coat protein [3]: 0.0249 µM
AUAAAACAUGUAGGAUAUGCGUAGCGAAGCUAUGCAGAAGGACAUGAGGAUCACCCAUGUCUUUCCGUCUGCGAACAGACGGAA [Mat - Exclusion NG 1 - Mod of JL - D44] (Eterna round: R96, puzzle: Exclusion NG 1) | 0.0357 | 0.021 |  | apparent KD of MS2 coat protein [4]: 0.0138 µM
ACCUCACAUGAGGAUCACCCAUGUCAGGAUAUCUAAUGUAGUCGCGUUCCCGACGCUAAGAGAAGGGACAUUAA [EX1 #34] (Eterna round: R97, puzzle: Exclusion 1) | 0.0226 | 0.0141 |  | 
AAGUGGUGAGGAUAUAUAUACCAAUCUUCGAGGCACGACCAACAUGAGGAUCACCCAUGUAGAAGGCACCACAA [Eternabot (Original) Solution 39] (Eterna round: R97, puzzle: Exclusion 2) | 0.0327 | 0.0149 |  | 
GAAUUCCGAGGAUAUUCGGAACCAGACAUGAGGAUCACCCAUGUGAUGCAGUUUCCGUUCGAAGAAGGUGGAACGC [Eternabot (Original) Solution 28] (Eterna round: R97, puzzle: Exclusion 5) | 0.0225 | 0.0233 |  | 
AAACAAGCAACGAGAUCCCACAUGAGGAUCACCCAUGUCAACUGGAGUUUUAAAUCUUUAGGCUCGUUUUAUAACAA [S_tov1_V1.2] (Eterna round: R97, puzzle: Sensor, turn-off variant 1) | 0.0504 | 0.0568 |  | 
UUUUAACAUGAGGAUCACCCAUGUGAGGAUAUCGAAAUUUAUAUUUAUAUUAAUUAUACGAGAAGGCACAUUUU [JMF 86] (puzzle: Exclusion 1) |  |  | 0.0655 | 
AAGGUGUUAGGAUAUCGUAGUUUGUGGCAGACGGGAUUUUGCGAGAAGGAACAUGAGGAUCACCCAUGUCGGAU [JR_Exclu4_Sub041] (puzzle: Exclusion 4) |  |  | 0.0271 | 
